pEC50: −log10 of the molar value. Like-named read-outs stand apart in the source and are kept apart here. Where a SMILES comes first, the peptide text is derived from it. Bridges are numbered along the chain shown (N, C = ends). Where no end group is shown, it is not given here. [ ]: non-standard residue; d: D form. The star is where a group is joined. Isobutyryl(2-imidazol-4-yl) = CC(C)(C(=O)*)c1c[nH]cn1; PEG = not defined here; Aib = CC(C)(N)C(=O)O
Experiments:
[1] = target: T1, glucagon receptor (Homo sapiens, UniProt P47871); test: Functional assay-cAMP synthesis, luciferase reporter in HEK293 cells co-transfected with glucagon receptor; format: cell-based; conditions: for Parent w/PEG % Potency Relative to Native GR / Parent w/o PEG % Potency Relative to Native GR: Table 12; for Parent w/PEG % Potency Relative to Native GR: pegylated peptide; for Percent Potency Relative to Native Ligand GRec: relative to native glucagon; for Glucagon Receptor Relative Potency (%): Table 11, relative to glucagon (SEQ ID NO: 1) = 100; for EC50: Glucagon Receptor EC50(nM), Table 10, GLP-1 17-26 glucagon analogs; for Parent w/o PEG % Potency Relative to Native GR: peptide without PEG
T1 construct: expressed in transfected cells; host or cells: HEK293

[2] = target: T2, GLP-1 receptor (Homo sapiens, UniProt P43220); test: Functional assay-cAMP synthesis, luciferase reporter in HEK293 cells co-transfected with GLP-1 receptor; format: cell-based; conditions: for Percent Potency Relative to Native Ligand GLP-1Rec: relative to native GLP-1; for GLP 1 Receptor Relative Potency (%): Table 11, relative to GLP-1-VKGG30 (SEQ ID NO: 527) = 100
T2 construct: expressed in transfected cells; host or cells: HEK293
T2 sequence (P43220 24-463, species assumed): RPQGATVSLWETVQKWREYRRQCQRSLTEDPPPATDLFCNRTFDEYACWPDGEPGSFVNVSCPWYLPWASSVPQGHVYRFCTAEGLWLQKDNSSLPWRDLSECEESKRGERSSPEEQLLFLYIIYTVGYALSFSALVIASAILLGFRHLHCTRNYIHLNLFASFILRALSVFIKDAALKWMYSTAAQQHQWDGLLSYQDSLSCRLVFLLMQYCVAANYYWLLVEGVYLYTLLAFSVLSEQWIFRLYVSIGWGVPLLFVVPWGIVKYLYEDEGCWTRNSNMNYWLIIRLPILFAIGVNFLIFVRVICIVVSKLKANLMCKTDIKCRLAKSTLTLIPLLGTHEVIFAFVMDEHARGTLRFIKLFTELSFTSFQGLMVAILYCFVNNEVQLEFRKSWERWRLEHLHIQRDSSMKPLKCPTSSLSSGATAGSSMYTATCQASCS

T1 sequence (P47871 26-477): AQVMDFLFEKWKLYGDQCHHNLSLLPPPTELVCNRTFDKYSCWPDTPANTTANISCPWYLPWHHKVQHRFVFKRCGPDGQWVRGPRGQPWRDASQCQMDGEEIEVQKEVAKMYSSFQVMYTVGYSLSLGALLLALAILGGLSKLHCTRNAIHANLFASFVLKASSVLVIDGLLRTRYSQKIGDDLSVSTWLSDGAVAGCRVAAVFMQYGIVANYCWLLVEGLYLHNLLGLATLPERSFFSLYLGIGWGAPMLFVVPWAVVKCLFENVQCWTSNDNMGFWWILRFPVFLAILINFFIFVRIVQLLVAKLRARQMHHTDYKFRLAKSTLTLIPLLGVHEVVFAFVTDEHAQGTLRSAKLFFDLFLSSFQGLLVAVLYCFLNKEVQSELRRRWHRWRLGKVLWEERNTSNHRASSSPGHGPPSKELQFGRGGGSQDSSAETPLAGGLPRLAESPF

Row | Molecule | Parent w/PEG % Potency Relative to Native GR [1] [%] | Parent w/PEG % Potency Relative to Native GLP-1R ([2]; Table 12, pegylated peptide) [%] | pEC50 [2] | Parent w/o PEG % Potency Relative to Native GR [1] [%] | other results
1 | X1SQGT FTSDYSKYLD EQAAK EFIAW LMNC*a ([Isobutyryl(2-imidazol-4-yl)]SQGTFTSDYSKYLDEQAAKEFIAWLMNC(PEG)-NH2; reading uncertain) [Chimera DMIA1, Cys29 (SEQ ID NO: 520), X1=DMIA; C* is Cys attached to PEG in the tested form] | 5.3 | 27.3 | – | – | –
2 | HSQGTFTSDYSKYLDERRAKDFVQW LMNTa [E16K20 Gluc-NH2 Lac] (HSQGTFTSDYSKYLDERRAKDFVQWLMNT-NH2; lactam 16-20; N-terminus assumed; SMILES CSCC[C@H](NC(=O)[C@H](CC(C)C)NC(=O)[C@H](Cc1c[nH]c2ccccc12)NC(=O)[C@H](CCC(N)=O)NC(=O)[C@@H](NC(=O)[C@H](Cc1ccccc1)NC(=O)[C@H](CC(=O)O)NC(=O)[C@@H]1CCCCNC(=O)CC[C@H](NC(=O)[C@H](CC(=O)O)NC(=O)[C@H](CC(C)C)NC(=O)[C@H](Cc2ccc(O)cc2)NC(=O)[C@H](CCCCN)NC(=O)[C@H](CO)NC(=O)[C@H](Cc2ccc(O)cc2)NC(=O)[C@H](CC(=O)O)NC(=O)[C@H](CO)NC(=O)[C@@H](NC(=O)[C@H](Cc2ccccc2)NC(=O)[C@@H](NC(=O)CNC(=O)[C@H](CCC(N)=O)NC(=O)[C@H](CO)NC(=O)[C@@H](N)Cc2c[nH]cn2)[C@@H](C)O)[C@@H](C)O)C(=O)N[C@@H](CCCNC(=N)N)C(=O)N[C@@H](CCCNC(=N)N)C(=O)N[C@@H](C)C(=O)N1)C(C)C)C(=O)N[C@@H](CC(N)=O)C(=O)N[C@H](C(N)=O)[C@@H](C)O) | – | – | – | – | Percent Potency Relative to Native Ligand GRec ([1]; Table 9, E16/lactam analogs): 180.8%; Percent Potency Relative to Native Ligand GLP-1Rec ([2]; Table 9, E16/lactam analogs): 63.0%
3 | HSQGTFTSDYSKYLDSRRAQDFVQWLVKGGPSSGAPPPS-NH2 [-VKGG^30 PSSGAPPPS (SEQ ID NO: 524)] | – | – | 9.68 | – | pEC50 [1]: 8.94; Glucagon Receptor Relative Potency (%) [1]: 7%; GLP 1 Receptor Relative Potency (%) [2]: 12%
4 | CC[C@H](C)[C@H](NC(=O)[C@H](Cc1ccccc1)NC(=O)[C@H](CCC(=O)O)NC(=O)[C@H](CCCCN)NC(=O)[C@H](C)NC(=O)[C@H](C)NC(=O)[C@H](CCC(N)=O)NC(=O)[C@H](CCC(=O)O)NC(=O)[C@H](CC(=O)O)NC(=O)[C@H](CC(C)C)NC(=O)[C@H](Cc1ccc(O)cc1)NC(=O)[C@H](CCCCN)NC(=O)[C@H](CO)NC(=O)[C@H](Cc1ccc(O)cc1)NC(=O)[C@H](CC(=O)O)NC(=O)[C@H](CO)NC(=O)[C@@H](NC(=O)[C@H](Cc1ccccc1)NC(=O)[C@@H](NC(=O)CNC(=O)[C@H](CCC(N)=O)NC(=O)[C@H](CO)NC(=O)[C@@H](N)Cc1c[nH]cn1)[C@@H](C)O)[C@@H](C)O)C(=O)N[C@H]1CCC(=O)NCCCC[C@@H](C(=O)NCC(N)=O)NC(=O)[C@H](C(C)C)NC(=O)[C@H](CC(C)C)NC(=O)[C@H](Cc2c[nH]c3ccccc23)NC1=O [E16 GLP(17-29)-NH2 E24, K28 Lactam] (H-HSQGTFTSDYSKYLDEQAAKEFIEWLVKG-NH2; lactam 24-28; N-terminus assumed) | – | – | 11.15 | – | EC50 [1]: 0.16 nM
5 | HX2QGT FTSDY SKYLD EQAAK EFIC*W LMNTa | 9.2 | – | – | 114.2 | Parent w/PEG % Potency Relative to Native GLP-1R [2]: 38.0%; Parent w/o PEG % Potency Relative to Native GLP-1R [2]: 230.4%
6 | HSEGTFTSDYSKYLDERRAQDFVQW LMNTa (HSEGTFTSDYSKYLDERRAQDFVQWLMNT-NH2) [E3, E16 Gluc-NH2] | – | – | – | – | Percent Potency Relative to Native Ligand GRec ([1]; Table 4): 1.6%; Percent Potency Relative to Native Ligand GLP-1Rec ([2]; Table 4): 28.8%
7 | HX2QGT FTSDY SKYLD EQAAK EFIC*W LMNTa [Chimera AIB2, Cys24 (SEQ ID NO: 486)] | 2.6 | 82.5 | – | 15.4 | Parent w/o PEG % Potency Relative to Native GLP-1R ([2]; Table 12, peptide without PEG): 160.6%
8 | HSQGT FTSDYSKYLD EQAAK EFIC*W LMNTa (HSQGTFTSDYSKYLDEQAAKEFIC(PEG)WLMNT-NH2; reading uncertain) [Chimera Cys24 (SEQ ID NO: 518), C* is Cys attached to PEG in the tested form] | 19.8 | 29.3 | – | – | –
9 | X1SQGT FTSDYSKYLD EQAAK EFIC*W LMNTa [Chimera DMIA1, Cys24 (SEQ ID NO: 519)] | 6.9 | 19.3 | – | 28.9 | Parent w/o PEG % Potency Relative to Native GLP-1R ([2]; Table 12, peptide without PEG): 64.5%
10 | HX2QGT FTSDYSKYLDEQAAKEFIAWLMNC*a (H[Aib]QGTFTSDYSKYLDEQAAKEFIAWLMNC-NH2; also: optional PEG on Cys29) [Chimera AIB2, Cys29 (SEQ ID NO: 487), X2=AIB; C* is Cys or Cys attached to PEG] | 5.6 | 54.3 | – | 20.1 | Parent w/o PEG % Potency Relative to Native GLP-1R ([2]; Table 12, peptide without PEG): 124.6%
11 | CSCC[C@H](NC(=O)[C@H](CC(C)C)NC(=O)[C@H](Cc1c[nH]c2ccccc12)NC(=O)[C@H](CCC(N)=O)NC(=O)[C@@H](NC(=O)[C@H](Cc1ccccc1)NC(=O)[C@H](CC(=O)O)NC(=O)[C@H](CCC(N)=O)NC(=O)[C@H](C)NC(=O)[C@H](CCCNC(=N)N)NC(=O)[C@H](CCCNC(=N)N)NC(=O)[C@H](CO)NC(=O)[C@H](CC(=O)O)NC(=O)[C@H](CC(C)C)NC(=O)[C@H](Cc1ccc(O)cc1)NC(=O)[C@H](CCCCN)NC(=O)[C@H](CO)NC(=O)[C@H](Cc1ccc(O)cc1)NC(=O)[C@H](CC(=O)O)NC(=O)[C@H](CO)NC(=O)[C@@H](NC(=O)[C@H](Cc1ccccc1)NC(=O)[C@@H](NC(=O)CNC(=O)[C@H](CCC(N)=O)NC(=O)[C@H](CO)NC(=O)[C@@H](N)Cc1c[nH]cn1)[C@@H](C)O)[C@@H](C)O)C(C)C)C(=O)N[C@@H](CCCCN)C(=O)NCC(=O)NCC(=O)N1CCC[C@H]1C(=O)N[C@@H](CO)C(=O)N[C@@H](CO)C(=O)NCC(=O)N[C@@H](C)C(=O)N1CCC[C@H]1C(=O)N1CCC[C@H]1C(=O)N1CCC[C@H]1C(=O)N[C@@H](CO)C(N)=O [-MKGG^30 PSSGAPPPS (SEQ ID NO: 523)] | – | – | 9.10 | – | pEC50 [1]: 9.21; Glucagon Receptor Relative Potency (%) [1]: 14%; GLP 1 Receptor Relative Potency (%) [2]: 3%
12 | HSQGTFTSDYSKYLDEQAAKEFIEWLVKG-NH2 [E16 GLP(17-29)-NH2 E24, K28] | – | – | 11.15 | – | EC50 [1]: 0.23 nM
